Source: publication PMC3817195, “Crystal Structure of a Four-Layer Aggregate of Engineered TMV CP Implies the Importance of Terminal Residues for Oligomer Assembly” (PLoS ONE, 2013)

How the values were obtained:
[1] = target: the molecule itself; assay: SEC; freshly purified protein, 20 mM sodium phosphate, 100 mM NaCl, pH 8.0; superdex 200, 4°C
[2] = target: the molecule itself; assay: native gel or EMSA; native-PAGE on ice (4% stacking, 17% separating gel, Tris-Gly pH 8.8); samples equilibrated overnight in 10 mM PB pH 7.2, 100 mM NaCl

Protein	stoichiometry N [1]	binding result [2]
N-His-TMV CP^19 (tobacco mosaic virus coat protein, N-terminal six-His tag, C-terminal residues 155-158 truncated) (domain or fragment, Tobacco mosaic virus (common strain) coat protein, residues 1-154; Gly155, Pro156, Ala157 and Thr158 deleted at the C-terminus; no tag cleavage is described; Oligomeric state depends on buffer: monomer and dimer, 20S, disks, four-layer aggregate, rods; also called genetically engineered TMV CP; truncated TMV CP; source: E. coli BL21 (DE3) RIL, purified (HisTrap, gel filtration on superdex 200); …) SYSITTPSQFVFLSSAWADPIELINLCTNALGNQFQTQQARTVVQRQFSEVWKPSPQVTVRFPDSDFKVYRYNAVLDPLVTALLGAFDTRNRIIEVENQANPTTAETLDATRRVDDATVAIRSAINNLIVELIRGTGSYNRSSFESSSGLVWTS	2	
wild type TMV CP (tobacco mosaic virus coat protein) (natural protein, also called WT TMV CP; wild TMV CP) SYSITTPSQFVFLSSAWADPIELINLCTNALGNQFQTQQARTVVQRQFSEVWKPSPQVTVRFPDSDFKVYRYNAVLDPLVTALLGAFDTRNRIIEVENQANPTTAETLDATRRVDDATVAIRSAINNLIVELIRGTGSYNRSSFESSSGLVWTSGPAT		binds
